Numbering of substitutions follows the chain as printed.
What was measured:
[1] = Circular dichroism thermal denaturation; format: physicochemical; conditions: stable α-helical structure, PBS pH 7.4, heated from 0-98° C.
Method: Circular dichroism experiments were performed on an Aviv 62A DS circular dichroism spectrometer. Measurements from […] were performed in a 10 μM solution of protein sample in PBS (50 mM Na phosphate, 150 mM NaCl, pH 7.4) in a 1-mm path-length cuvette. Thermal denaturation was performed in a 10 mm path-length cuvette and samples were heated from 0-98° C., with equilibration times of 2 minutes and an averaging time of 1 minute. Protein concentrations were determined by absorbance at 280 nm in 20 mM phosphate-buffered 6M guanidine-hydrochloride (pH 6.5) (H. Edelhoch, Biochemistry 6, 1948-54 (1967)).

[2] = Solubility in physiological buffers; format: physicochemical
[3] = target: Bcr1-72C38A (Bcr-Abl oligomerization domain, residues 1-72 of human Bcr, Cys38 mutated to Ala), monomer chain (human); test: X-ray crystal structure, buried surface
[4] = target: Bcr1-72C38A (Bcr-Abl oligomerization domain, residues 1-72 of human Bcr, Cys38 mutated to Ala), monomer chain (human); test: X-ray crystal structure, interface analysis
[5] = target: Bcr1-72C38A dimer (domain-swapped antiparallel coiled-coil dimer seen in the crystal) (human); test: X-ray crystal structure, buried surface
[6] = tested on: Bcr-Abl transformation of Rat-1 fibroblasts; test: Rat-1 focus-formation assay; format: cell-based; conditions: Rat-1 fibroblasts cotransfected with MIG-P210 and increasing doses of plasmid B74; foci counted after 3 weeks
Method: FIG. 5 is a graphic representation of results of a Rat-1 focus-formation assay. Data shown are the average of three dishes and are representative of four independent experiments. Error bars indicate the standard deviation of foci numbers between the experiments.
Whether the Bcr-Abl oligomerization domain inhibits full-length Bcr-Abl oligomerization in a dominant-negative manner was assessed. […] The total number of transformed foci was quantified after 3 weeks. Transected cultures were stained with 0.4% crystal violet to better visualize transformed foci.
For expression in mammalian cells, Bcr1-74 fragments were PCR amplified from pMBP/Bcr1-74 (with the optimal E. coli codons) as mentioned above, and inserted into the retroviral expression vector pMX-IRES-GFP (X. Liu et al., Anal Biochem 280, 20-28 (2000)) using BamHI and NotI sites. The resulting plasmid was denoted p74-IES-GFP (B74). Although it has been reported that the Bcr oligomerization domain as contained in residues 1-71 (SEQ ID NO: 19; SEQ ID NO: 20) of the Bcr protein cannot be stably expressed in mammalian cells (C. L. Sawyers, N Engl J Med 340, 1330-40 (1999)), a fair amount of Bcr1-74 (SEQ ID NO: 7) protein was detected by Western blotting when B74 was expressed in vivo. It is possible that use of E. coli-optimized codons improved expression in this domain. […] The total number of transformed foci was counted after 3 weeks.

Bcr-Abl = target: T1, Bcr-Abl (Homo sapiens, UniProt P00519+P11274); conditions: literature reports (Guo 1998; Wu 1999); cited from earlier work
T1 construct: c-Abl portion (ABL1, fusion partner)
T1 sequence (P11274 1-426 limits assumed): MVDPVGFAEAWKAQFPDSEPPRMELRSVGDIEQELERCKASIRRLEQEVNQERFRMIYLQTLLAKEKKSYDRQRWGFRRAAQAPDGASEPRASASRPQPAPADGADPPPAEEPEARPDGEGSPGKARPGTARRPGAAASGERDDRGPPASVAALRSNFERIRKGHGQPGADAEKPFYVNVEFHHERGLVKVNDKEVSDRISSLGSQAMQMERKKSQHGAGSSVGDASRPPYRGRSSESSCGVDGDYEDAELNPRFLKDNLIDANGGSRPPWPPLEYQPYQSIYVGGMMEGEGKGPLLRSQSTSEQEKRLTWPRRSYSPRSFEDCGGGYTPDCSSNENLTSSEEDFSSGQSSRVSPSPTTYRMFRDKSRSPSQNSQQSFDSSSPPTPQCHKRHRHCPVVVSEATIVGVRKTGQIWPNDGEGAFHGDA

Ac-DIEQELERCKASIRRLEQEVNQERFRMIYLQTLLAK-NH2 [Bcr30-65]
midpoint of thermal denaturation (Tm) [1]: 60 °C
solubility in physiological buffers [2]: poor solubility

B1: Bcr1-72C38A (Bcr-Abl oligomerization domain, residues 1-72 of human Bcr, Cys38 mutated to Ala), monomer chain (protein, UniProt P11274 1-72 with C38A, looked up)
chain: MVDPVGFAEAWKAQFPDSEPPRMELRSVGDIEQELERAKASIRRLEQEVNQERFRMIYLQTLLAKEKKSYDR
modifications: oligomerization domain residues 1-72 selenomethionine form also used
solvent-accessible surface buried upon dimer formation [3]: 4200 Å^2
hydrogen bonds in the dimer interface (hydrogen bonds) [4]: 3
salt bridges in the dimer interface [4]: 7 salt bridges
van der Waals contacts in the dimer interface (radius cutoff 4 Å) [4]: 217 contacts

B2: Bcr1-72: Recombinant wild-type polypeptide, residues 1-72 of the N-terminus of human Bcr (oligomerization domain) (protein, UniProt P11274 1-72, looked up, fragment)
chain: B1 chain with A38C
midpoint of thermal denaturation (Tm) [1]: 84 °C

B3: Bcr1-72C38A dimer (domain-swapped antiparallel coiled-coil dimer seen in the crystal) (protein, UniProt P11274 1-72 with C38A, looked up)
chain: B1 chain
modifications: oligomerization domain residues 1-72, homodimer
solvent-accessible surface buried upon association of two dimers [5]: 3400 Å^2

B4: Bcr1-74: Residues 1-74 of human Bcr; expressed in Rat-1 cells from retroviral plasmid B74 (p74-IRES-GFP) (protein, UniProt P11274 1-74, looked up, fragment)
chain: MVDPVGFAEAWKAQFPDSEPPRMELRSVGDIEQELERCKASIRRLEQEVNQERFRMIYLQTLLAKEKKSYDRQR
transforming potential of Bcr-Abl (number of transformed foci) [6]: inhibited the transforming potential of Bcr-Abl

B5: N-terminal 160 amino acids of Bcr: N-terminal 160 amino acids of Bcr, which contain the oligomerization domain (literature) (protein, UniProt P11274 1-160, looked up, fragment)
chain: MVDPVGFAEAWKAQFPDSEPPRMELRSVGDIEQELERCKASIRRLEQEVNQERFRMIYLQTLLAKEKKSYDRQRWGFRRAAQAPDGASEPRASASRPQPAPADGADPPPAEEPEARPDGEGSPGKARPGTARRPGAAASGERDDRGPPASVAALRSNFER
Bcr-Abl transformation (Bcr-Abl): inhibit Bcr-Abl transformation

B6: full-length Bcr: Full-length human Bcr protein, 1271 amino acids (literature) (protein, UniProt P11274 1-1271, looked up)
chain: MVDPVGFAEAWKAQFPDSEPPRMELRSVGDIEQELERCKASIRRLEQEVNQERFRMIYLQTLLAKEKKSYDRQRWGFRRAAQAPDGASEPRASASRPQPAPADGADPPPAEEPEARPDGEGSPGKARPGTARRPGAAASGERDDRGPPASVAALRSNFERIRKGHGQPGADAEKPFYVNVEFHHERGLVKVNDKEVSDRISSLGSQAMQMERKKSQHGAGSSVGDASRPPYRGRSSESSCGVDGDYEDAELNPRFLKDNLIDANGGSRPPWPPLEYQPYQSIYVGGMMEGEGKGPLLRSQSTSEQEKRLTWPRRSYSPRSFEDCGGGYTPDCSSNENLTSSEEDFSSGQSSRVSPSPTTYRMFRDKSRSPSQNSQQSFDSSSPPTPQCHKRHRHCPVVVSEATIVGVRKTGQIWPNDGEGAFHGDADGSFGTPPGYGCAADRAEEQRRHQDGLPYIDDSPSSSPHLSSKGRGSRDALVSGALESTKASELDLEKGLEMRKWVLSGILASEETYLSHLEALLLPMKPLKAAATTSQPVLTSQQIETIFFKVPELYEIHKEFYDGLFPRVQQWSHQQRVGDLFQKLASQLGVYRAFVDNYGVAMEMAEKCCQANAQFAEISENLRARSNKDAKDPTTKNSLETLLYKPVDRVTRSTLVLHDLLKHTPASHPDHPLLQDALRISQNFLSSINEEITPRRQSMTVKKGEHRQLLKDSFMVELVEGARKLRHVFLFTDLLLCTKLKKQSGGKTQQYDCKWYIPLTDLSFQMVDELEAVPNIPLVPDEELDALKIKISQIKNDIQREKRANKGSKATERLKKKLSEQESLLLLMSPSMAFRVHSRNGKSYTFLISSDYERAEWRENIREQQKKCFRSFSLTSVELQMLTNSCVKLQTVHSIPLTINKEDDESPGLYGFLNVIVHSATGFKQSSNLYCTLEVDSFGYFVNKAKTRVYRDTAEPNWNEEFEIELEGSQTLRILCYEKCYNKTKIPKEDGESTDRLMGKGQVQLDPQALQDRDWQRTVIAMNGIEVKLSVKFNSREFSLKRMPSRKQTGVFGVKIAVVTKRERSKVPYIVRQCVEEIERRGMEEVGIYRVSGVATDIQALKAAFDVNNKDVSVMMSEMDVNAIAGTLKLYFRELPEPLFTDEFYPNFAEGIALSDPVAKESCMLNLLLSLPEANLLTFLFLLDHLKRVAEKEAVNKMSLHNLATVFGPTLLRPSEKESKLPANPSQPITMTDSWSLEVMSQVQVLLYFLQLEAIPAPDSKRQSILFSTEV
modifications: full-length
Bcr-Abl transformation (Bcr-Abl): inhibit Bcr-Abl transformation

Source: patent US20030064061A1, “Bcr-Abl oligomerization domain polypeptides and uses therefor” (Whitehead Institute for Biomedical Research, priority 2001, published 2003)
